Like-named read-outs stand apart in the source and are kept apart here. Oligonucleotides are written 5' to 3', each unit as a sugar letter and its base; * is a phosphorothioate linkage, no mark a phosphodiester; rarer units and linkages stand in square brackets, end groups in braces. Plain capitals give the bases only. {PEG20K-NH2} = 20 kDa PEG attached to the 5' nucleotide via an amine linker; [invdT] = inverted (3'-3') thymidine; d = 2'-deoxy (DNA); m = 2'-O-methyl
What was measured:
[1] = tested on: vWF dependent platelet plug formation, human whole blood; assay: PFA-100 assay, human whole blood; format: cell-based; details: citrated human whole blood; minimum concentration that extends closing time to 300 seconds
Excerpt: Another assay of this Example, using the PFA-100 instrument, is an agonist independent but vWF dependent assay that uses the PFA-100 instrument (Harrison et al., Clin. Lab. Haem., v24, p 225-32 (2002)). The PFA-100 simulates the formation of a hemostatic plug under conditions of high shear force in vivo by recording the time required for a platelets to aggregate and block the flow of citrated whole blood through a microscopic aperture in a membrane coated with collagen and either epinephrine or ADP. This activity is von Willebrand factor dependent as high MW vWF multimers bind to immobilized collagen on the membrane and then bind to and activate platelets because of the shear force induced by drawing the blood through the microscopic aperture.
Fresh whole blood was collected from healthy non-steroidal anti-inflammatory drug (NSAID) free cynomolgus macaques. Aptamers were diluted with physiological saline from Aldon (Cat#9420306) in no-additive vacutainer tubes (Cat#366434, Becton Dickenson). Samples were loaded onto collagen/epinephrine test cartridges (Cat#B4170-20A, Dade Behring) which were used in the PFA-100 machine (Dade Behring). Trigger solution (Cat#B4170-50, Dade Behring) was used in the self-test and to pre-wet the test cartridges. O-ring cleaning pads (Cat#B4170-73, Dade Behring) were used in the self-test and in the O-ring cleaning process.
A self-test, which included an O-ring cleaning process, was always run on the PFA-100 machine before running any samples to ensure proper function of the machine.
During the entire experiment, the tubes of whole blood were gently inverted every five minutes to prevent settling.
In order to assay the titration of aptamer in whole blood, the aptamer was added to no-additive vacutainer tubes and diluted to the desired concentrations (ex: 0 nM, 1 nM to 1000 nM) using physiological saline such that the final volume was […]. When the PFA-100 was ready to run the next set of samples, 1940 μl of whole blood was added to the tube containing a concentration of aptamer. This tube was gently inverted three times to thoroughly mix the aptamer and blood. Samples were always run in duplicate on the PFA-100 machine. 800 μl of this blood mixture was loaded into the collagen/epinephrine test cartridges. The test cartridges were loaded onto the PFA-100 machine. The time of occlusion of the aperture was measured by the PFA-100, with a maximal time of 300 seconds. We estimate the IC95 in this assay to be the minimum concentration of aptamer that extends the closing time to 300 seconds.

[2] = tested on: botrocetin induced platelet aggregation; assay: Inhibition of botrocetin induced platelet aggregation (BIPA) in human PRP; format: cell-based; details: human platelet rich plasma
Protocol: In platelet rich plasma isolated from fresh human blood, botrocetin induces platelet aggregation via vWF. Platelet aggregate formation can be measured optically as an increase in % light transmittance on a Chronolog Model 490-4D Aggregometer because aggregation of platelets clarifies the plasma. Aptamers of the invention were analyzed for their ability to inhibit botrocetin induced platelet aggregation (“BIPA”) in human blood. An aptamer of the invention was considered to be active if it could prevent aggregate formation for six minutes post botrocetin addition.
In order to determine the activity of aptamers on live human platelets, BIPA assays were done using freshly prepared platelet rich plasma. Blood was obtained from healthy human donors who had not taken NSAIDS for at least five days. […] Collected blood was pooled into 15 mL conical tubes and was spun at 200 g for 20 minutes. The turbid, yellow layer of platelet rich plasma (“PRP”) was withdrawn from the tubes, pooled, and set aside at room temperature. The remaining blood was spun at 2500 g for ten minutes. The clarified layer of plasma, known as platelet poor plasma (“PPP”), was withdrawn and set aside at room temperature. PRP was aliquoted into cuvettes containing stir bars at a volume of 470 uL. A sample of 500 uL of PPP was aliquoted into a cuvette and placed in the PPP reference cell of the platelet aggregometer. Samples of PRP were prewarmed at 37 degrees C. in the platelet aggregometer for 3-5 minutes before being used in BIPA assays. First, the concentration of botrocetin needed to induce platelet aggregation for each individual donor was determined by titration. This concentration of botrocetin was used for the remainder of the experiment. Next, aptamer was assayed by adding titrations of aptamer (zero, 1 nM to 1000 nM) to prewarmed PRP for one minute, followed by addition of botrocetin. With platelet aggregation, an increase in amplitude of light transmission is seen (FIG. 8). The concentration at which platelet aggregation is blocked at 90% or greater after 6 minutes is reported in the final column of Table 26.

[3] = pharmacokinetics after 3 mg/kg IV in cynomolgus macaques (Oligreen, HPLC); format: in vivo; details: cynomolgus monkey, in vivo, iv, 3 mg/kg
Protocol: ARC1368 (SEQ ID NO 291), 1779 (SEQ ID NO 320) and 1780 (SEQ ID NO 321) (as described in Example 2 above) were injected intravenously into cynomolgus macaques (n=3/group) at a dosage of 3 mg/kg which was expected to yield an instantaneous plasma concentration of 3 uM, approximately 30-fold higher than the putative effective dose. Subsequently, citrated blood samples were collected at regular intervals and processed for plasma.
Subsequently, plasma aptamer concentrations were determined using the Oligreen assay (Gray et al., Antisense and Nucleic Acid Drug Development 7 (3):133-140 (1997). The data were subsequently analyzed using the program WinNonlin to yield the pharmacokinetic parameters listed in Tables 29 to 31 below.
Following the Oligreen assay analysis, plasma aptamer concentrations were determined for the animals dosed with ARC1779 (SEQ ID NO 320) using a validated HPLC-based assay. The HPLC data were analyzed via noncompartmental and 2-compartment analysis using the program WinNonlin.

[4] = tested on: full length human vWF (SEQ ID NO 7); assay: dot blot KD determination and extent of binding, full length human vWF; details: dot blot;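 note: dot blot binding of aptamers to full length human vWF across a protein titration, incubated 30 minutes at room temperature in 1x DPBS with BSA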
Protocol: Based on this initial screen, KDs were determined for 3 of the vWF dependent binding sequences using the dot blot assay. […] A 12 point protein titration was used in the dot blot assay (300 nM, 100 nM, 30 nM, 10 nM, 3 nM, 1 nM, 300 pM, 100 pM, 30 pM, 10 pM, 3 pM, 0 pM) in 1×DPBS plus 0.1 mg/mL BSA at room temperature for 30 minutes.
An 8 point protein titration was used in the dot blot binding assay (100n M, 30 nM, 10 nM, 3 nM, 1 nM, 300 pM, 100 pM, 0 pM)) in 1× Dulbecco's PBS containing 0.1 BSA (final volume of 50 uL) for 30 minutes at room temperature.

vWF = vWF (Homo sapiens, UniProt P04275, D1472H/Q852R/T1381A); assay: cellular / biological vWF dependent assays of Example 3, not specified further; format: cell-based; details: in words; FACS, BIPA (and PFA-100) assays of Example 3
Excerpt: The effectiveness of various aptamers in blocking vWF function in several biological assays is described in this Example.
In one assay botrocetin is used. Botrocetin, a protein isolated from snake venom, is known to induce von Willebrand Factor binding to the gpib receptor on live and fixed platelets. This reaction causes agglutination of suspensions of fixed platelets via vWF multimerization. In preparations of platelet rich plasma (hereinafter “PRP”), vWF/botrocetin induction of agglutination is followed by a second phase of platelet aggregation caused by metabolic activation of the platelets. These two reactions: vWF binding to fixed platelets and vWF mediated platelet aggregation, can be used to measure the activity of aptamers of the invention.

[5] = tested on: full length human vWF binding to lyophilized platelets; assay: Full length human von Willebrand Factor platelet binding assay (FACS); format: cell-based; details: 5 nM full length human vWF, lyophilized platelets, botrocetin
Outline: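 Aptamer titrations (0.1–1000 nM) pre-incubated with 5 nM full-length human vWF, then added to lyophilized platelets plus botrocetin for 15 min at 37 °C in PBS/0.5% BSA. Bound vWF detected by anti-vWF then FITC secondary antibody via flow cytometry MFI; % inhibition versus no-aptamer binding fitted for IC50.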

[6] = tested on: intra-arterial thrombosis of carotid arteries; assay: cynomolgus macaque electrolytic thrombosis model; format: in vivo, cynomolgus monkeys; details: animals treated with Reopro
Protocol: A study was performed to test the efficacy of ARC1779 (SEQ ID NO 320) in inhibiting intra-arterial thrombosis in a well documented non-human primate electrolytic thrombosis model. See, e.g., Rote et al., Stroke, 1994: 25, 1223-1233.
Each animal was anesthetized prior to surgical preparation, intubated and maintained in anesthesia with isoflurane inhalant anesthetic to effect delivered through a volume-regulated respirator. An intravenous catheter was also placed in a peripheral vein for administration of lactated Ringer's solution during the procedure.
A catheter was placed in the femoral artery of each animal for continuous monitoring of arterial blood pressure. Similarly a catheter was placed in the femoral vein for blood sample collection. Each carotid artery was instrumented with a Doppler flow probe connected to a flow meter. The flow probes were placed around the artery at a point proximal to the insertion of the intra-arterial electrode and stenosis. The stenosis was placed around each carotid artery so that the […] was reduced by approximately 50% to 60% without altering the mean […]. Blood flow in the carotid arteries was monitored and recorded continuously throughout the observation periods.
Electrolytic injury to the intimal surface of each carotid artery was accomplished via placement of an intravascular electrode. Each electrode was connected to the positive pole of a constant current device and cathode connected to a distant subcutaneous site. Continuous current was delivered to each vessel for a period of 3 hours or for 30 minutes after complete occlusion, whichever was shorter.
Once the electrodes were placed on the right carotid artery (“RCA”) the animal was administered the test article as indicated in Table 32 above. Approximately 15 minutes after test article administration, the electrical current was applied at 100 μA. Blood samples and CBT measurements were collected at the time points specified in Blood Sample Collection Schedule as indicated in FIG. 31. The current was terminated ˜30 minutes after the blood flow signal remained stable at zero flow (which indicates an occlusive thrombus had been formed at the site) or after 180 minutes of electrical stimulation. Approximately 195 minutes after the test article was administered, the left carotid artery (“LCA”) had electrical current administered in a similar fashion as previously described for the RCA. After termination of all surgical procedures and sample collection each animal was euthanized.
An additional 10 cynomolgus monkeys (2.5 to 3.5 kg) were divided into treatment groups 5 to 7 and were treated according the regimen indicated in Table 33 below.
The animal procedure for each treatment group in Table 33 was conducted as reported for the animals in Example 5B.

[7] = tested on: rabbit vWF A1 domain (SEQ ID NO 6); assay: dot blot KD determination, rabbit vWF A1 domain; format: binding; details: dot blot, 12 point protein titration, 1xDPBS plus 0.1 mg/mL BSA, room temperature, 30 minutes
Protocol: A 12 point protein titration was used in the dot blot assay (300 nM, 100 nM, 30 nM, 10 nM, 3 nM, 1 nM, 300 pM, 100 pM, 30 pM, 10 pM, 3 pM, 0 pM) in 1×DPBS plus 0.1 mg/mL BSA at room temperature for 30 minutes.

full length human vWF = assay: 3-point dot blot screen, full length human vWF; format: binding; details: 20 nM full length human vWF, ratio of fraction of aptamer bound with target protein to fraction bound without protein
Outline: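 Unique aptamer clones tested twice by nitrocellulose dot blot with no protein, 20 nM full-length human vWF or 20 nM rabbit vWF A1 domain. Value is fraction of aptamer bound with target divided by fraction bound without protein.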

[8] = tested on: rabbit vWF A1 domain (SEQ ID NO 6); assay: 3-point dot blot screen, rabbit vWF A1 domain; format: binding; details: 3-point dot blot screen, 20 nM rabbit vWF A1 domain; ratio of fraction of aptamer bound with target protein to fraction bound without protein
Outline: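 Rabbit vWF A1 domain binding was screened by dot blot using three conditions: no target protein, human vWF, and rabbit vWF A1 domain at 100 nM (20 nM in the screen run twice). Radiolabeled aptamer bound to nitrocellulose was quantified, and results are expressed as the ratio of bound fraction with protein to bound fraction without protein.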

[9] = read-out: Inhibition of full length hVWF binding in FACS assay, Average IC50

Sequence of vWF (P04275 764-2813 Q852R/T1381A/D1472H): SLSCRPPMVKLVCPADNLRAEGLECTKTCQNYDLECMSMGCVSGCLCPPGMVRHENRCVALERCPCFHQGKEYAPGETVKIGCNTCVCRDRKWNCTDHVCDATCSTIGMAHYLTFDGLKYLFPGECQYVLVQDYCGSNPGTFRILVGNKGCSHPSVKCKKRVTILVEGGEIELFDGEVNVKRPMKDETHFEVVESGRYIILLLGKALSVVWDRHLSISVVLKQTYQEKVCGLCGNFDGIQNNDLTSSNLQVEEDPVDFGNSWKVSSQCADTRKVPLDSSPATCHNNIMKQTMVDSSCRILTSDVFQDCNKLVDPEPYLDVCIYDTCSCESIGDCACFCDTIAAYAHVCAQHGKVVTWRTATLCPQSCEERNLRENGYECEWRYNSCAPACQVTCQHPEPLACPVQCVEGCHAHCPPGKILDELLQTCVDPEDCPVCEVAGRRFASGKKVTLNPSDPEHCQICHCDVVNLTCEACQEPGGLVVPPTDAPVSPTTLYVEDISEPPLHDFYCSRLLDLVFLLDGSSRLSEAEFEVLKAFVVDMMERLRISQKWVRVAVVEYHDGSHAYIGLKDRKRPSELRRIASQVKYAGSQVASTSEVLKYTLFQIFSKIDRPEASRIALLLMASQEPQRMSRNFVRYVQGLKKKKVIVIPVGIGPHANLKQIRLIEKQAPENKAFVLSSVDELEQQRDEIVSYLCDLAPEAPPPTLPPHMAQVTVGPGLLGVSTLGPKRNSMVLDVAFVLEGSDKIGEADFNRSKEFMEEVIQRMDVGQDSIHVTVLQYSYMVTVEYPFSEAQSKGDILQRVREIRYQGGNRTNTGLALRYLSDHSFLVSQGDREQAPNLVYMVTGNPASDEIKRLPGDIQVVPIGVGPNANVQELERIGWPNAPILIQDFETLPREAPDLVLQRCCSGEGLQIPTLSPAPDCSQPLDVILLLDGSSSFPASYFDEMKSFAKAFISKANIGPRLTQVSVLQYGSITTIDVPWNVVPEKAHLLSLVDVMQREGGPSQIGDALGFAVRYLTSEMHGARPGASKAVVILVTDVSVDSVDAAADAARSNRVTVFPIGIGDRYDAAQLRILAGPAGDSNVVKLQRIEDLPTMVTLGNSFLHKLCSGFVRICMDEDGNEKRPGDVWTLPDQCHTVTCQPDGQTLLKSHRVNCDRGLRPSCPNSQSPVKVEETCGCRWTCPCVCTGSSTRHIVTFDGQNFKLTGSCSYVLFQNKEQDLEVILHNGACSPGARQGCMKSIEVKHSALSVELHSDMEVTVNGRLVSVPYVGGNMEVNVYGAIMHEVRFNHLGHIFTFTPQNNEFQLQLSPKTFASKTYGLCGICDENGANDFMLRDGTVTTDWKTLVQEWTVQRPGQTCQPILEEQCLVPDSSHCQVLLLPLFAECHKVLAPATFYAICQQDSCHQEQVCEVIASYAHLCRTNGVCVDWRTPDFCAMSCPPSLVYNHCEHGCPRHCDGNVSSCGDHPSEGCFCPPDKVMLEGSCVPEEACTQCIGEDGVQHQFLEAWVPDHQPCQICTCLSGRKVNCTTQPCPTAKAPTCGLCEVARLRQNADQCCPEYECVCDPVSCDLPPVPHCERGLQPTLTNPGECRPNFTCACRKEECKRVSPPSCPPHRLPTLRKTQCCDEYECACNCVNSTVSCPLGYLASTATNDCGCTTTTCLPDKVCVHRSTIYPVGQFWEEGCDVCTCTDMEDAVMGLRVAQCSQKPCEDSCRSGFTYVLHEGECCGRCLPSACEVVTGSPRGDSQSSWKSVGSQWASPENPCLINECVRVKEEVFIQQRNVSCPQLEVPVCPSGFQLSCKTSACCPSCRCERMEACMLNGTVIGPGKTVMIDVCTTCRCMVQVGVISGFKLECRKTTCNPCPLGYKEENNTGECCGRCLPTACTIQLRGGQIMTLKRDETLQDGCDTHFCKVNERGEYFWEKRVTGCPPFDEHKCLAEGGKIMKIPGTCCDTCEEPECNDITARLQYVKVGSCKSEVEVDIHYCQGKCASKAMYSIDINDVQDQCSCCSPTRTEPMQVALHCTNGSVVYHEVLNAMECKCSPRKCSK
Sequence of rabbit vWF A1 domain (SEQ ID NO 6) (as listed by the source): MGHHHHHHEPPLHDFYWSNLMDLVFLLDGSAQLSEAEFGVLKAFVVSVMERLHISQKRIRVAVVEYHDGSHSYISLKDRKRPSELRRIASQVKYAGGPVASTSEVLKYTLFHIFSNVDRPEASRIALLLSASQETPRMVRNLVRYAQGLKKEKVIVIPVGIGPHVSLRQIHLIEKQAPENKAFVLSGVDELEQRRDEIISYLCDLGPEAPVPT

PEG40K-NH2-mGmCmGmUdGdCdAmGmUmGmCmCmUmUmCmGmGmCdCmG-s-TmGdCdGdGTmGmCdCmUdCdCmGmUdCmAmCmGmC-3T [ARC1780]
~IC95 PFA-100 (nM) with citrated human whole blood [1]: ~100 nM | IC90 [2]: ~100 nM | AUCall, Mean [3]: 751.065 µg·h/mL | AUClast, Mean [3]: 751.065 µg·h/mL | MRTlast, Mean [3]: 10.78 h | distribution phase [3]: prolonged distribution phase | pharmacokinetic profile [3]: mainly monophasic

mGmCmGmUdGdCdAmGmUmGmCmCmUmUmCmGmGmCdCmGmTmGdCdGdGTmGmCdCmUdCdCmGmUmCmAmCmGmC-3T (mGmCmGmUdGdCdAmGmUmGmCmCmUmUmCmGmGmCdCmGmTmGdCdGdGdTmGmCdCmUdCdCmGmUmCmAmCmGmC[invdT]) [ARC1525]
binding to human vWF ([4]; in words): no binding at all | activity in the cellular / biological assays (vWF): did not display activity

GGACGATCTGACTAGCTCCAGTGTTTTATCTAATAACCGTCC (DNA, backbone not given here) [SEQ ID NO 208, minimized DNA aptamer]
IC50 [5, 9]: 4300 pM | activity in the cellular / biological assays (vWF): demonstrated activity

PEG20K-NH2-dGdGdCdGTdGdCdAdGTdGdCdCTTdCdGdGdCdCdGTdGdCdGdGTdGdCdCTdCdCdGTdCdAdCdGdCdC-3T (GGCGTGCAGTGCCTTCGGCCGTGCGGTGCCTCCGTCACGCC; DNA, [invdT] at 3' end, 5' {PEG20K-NH2}, backbone not given here) [ARC1885, 20 kDa PEG conjugate of ARC1172]
~IC95 PFA-100 (nM) with citrated human whole blood [1]: ~100 nM | IC90 [2]: ~50 nM

B1: Reopro: IIbIIIa antagonist (antibody, chains of the INN, looked up, V domains shown)
VH: EVQLQQSGTVLARPGASVKMSCEASGYTFTNYWMHWVKQRPGQGLEWIGAIYPGNSDTSYIQKFKGKAKLTAVTSTTSVYMELSSLTNEDSAVYYCTLYDGYYVFAYWGQGTLVTVSA
VL: EIVLTQSPVTLSVTPGDSVSLSCRASRDISNNLHWFQQTSHESPRLLIKYASQSMSGIPSRFSGSGSGTDFTLSINSVETEDFGMYFCQQTNSWPYTFGGGTKLEIK
modifications: Fab
notes: IIbIIIa antagonist
arteries that developed occlusive thrombi [6]: 20%

B2: AMX238.E9: DNA SELEX 2 aptamer clone (nucleic acid)
DNA: CTACCTACGATCTGACTAGCGTGCAGTGCCCATCTTAGGCCGTGCGGTGCCTCCGTCACGCTTACTCTCATGTAGTTCC
modifications: DNA, backbone not given here
notes: DNA SELEX 2 aptamer clone
IC50 [5, 9]: 3400 pM | IC50 ([5]; units in the cell: lower bound pM, upper bound nM, read-out: Inhibition of full length hVWF binding in FACS assay, IC50 range): 772 to 6500 pM | Kd ([4]; 12 point protein titration, 1xDPBS plus 0.1 mg/mL BSA, room temperature, 30 minutes, read-out: full length human vWF KD): 0.39 nM | Kd [7]: 5.3 nM | Screen- Human/No Protein (full length human vWF): 3.44 | Screen Rabbit/No Protein [8]: 3.36 | activity in the cellular / biological assays (vWF): slightly more potent

Reference: patent US7998940B2, “Aptamers to von Willebrand factor and their use as thrombotic disease therapeutics” (Archemix Corp., priority 2004, dated 2011)
